Measurements: doi:10.1101/869123

Experiments:
[1] = molecular target: CRIPT^L4 (CRIPT mutants with substitutions to any of the last four cysteines), co-IP from mitotic HeLa cells; test: co-IP
[2] = molecular target: CRIPT^S4 (CRIPT mutants with substitutions to any of the first four cysteines), co-IP from mitotic HeLa cells; test: co-IP

Substance | fold of tubulin brought down relative to wild-type CRIPT [1] [fold] | fold of tubulin brought down relative to wild-type CRIPT [2] [fold]
α-tubulin, endogenous, mitotic HeLa cells (from UniProt P68363 1-451) (natural protein) | > 2 | > 2
β-tubulin, endogenous, mitotic HeLa cells (from UniProt P07437 1-444) (natural protein) | > 2 | > 2
